# Measurements taken from the supplement of paper PMC10567573.
# ± gives the standard deviation.
# Experiment: protein stability index of a GFP-peptide fusion (GPS, HEK-293T) (PSI 1-6); higher = more stable
# Conditions: c terminus: a fixed tail appended
# 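Note: 24-mer peptide tiles fused after GFP, lentivirally expressed, FACS-sorted into six equal bins by GFP/DsRed ratio, decoded by Illumina sequencing, PSI is the read-weighted mean bin number.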
Sequence,protein stability index (treatment: DMSO),"protein stability index (treatment: MLN4924 1 uM, 8 h)"
AAAAKAFKHPSIRNPVSLVVTRLV [ADAMTS4],2.22 ± 0.49,2.67 ± 0.48
AAAAMYTFLPDNFSPAKPKPSKEL [MYORG],3.62 ± 0.11,3.59 ± 0.3
AAAQAPENFQEGKDMSESQDEVPD [TAF7L],5.62 ± 0.24,5.58 ± 0.23
AAGVAAAFGAPIGGTLFSLEEGSS [CLCN6],3.94 ± 0.09,3.97 ± 0.17
AALIEAIQDRLSNTLQTYIRCRHP [VDR],2.49 ± 0.5,2.54 ± 0.32
AALLILFAASLLTVFAWLLQYARG [C2CD2L],2.74 ± 0.46,3.15 ± 0.46
AALPPVPSPPAAPSVADNLLASSD [SERTAD1],5.46 ± 0.14,5.35 ± 0.3
AALQRSLAAALAQHSVPLQLELRA [TRADD],2.89 ± 1.2,2.46 ± 0.73
AAQAAAAAHAAQAHRERNEFPEDP [PI4K2A],5.36 ± 0.35,5.5 ± 0.1
AARAGHVCTVQFLISKGANVNRTT [ANKRD17],1.83 ± 0.32,2.07 ± 0.21
ACHPFLLGPPLVRKRIHDSRVAGF [TOR1AIP2],2.51 ± 0.39,2.5 ± 0.18
ACMMTITFLPYTFSLMVTFPDVPL [TMEM175],3.1 ± 0.09,3.26 ± 0.33
ADGRIEPGDMLLQVNEINFENMSN [DVL3],3.95 ± 0.33,4.36 ± 0.32
ADLWYLFGDLSLSLVTVGKHLTAR [POMT2],3.17 ± 0.74,2.56 ± 0.8
ADQKLVIIKQIPVEQMTKEERQAA [NEK8],4.62 ± 0.24,4.61 ± 0.23
AEAERLDVKAMGPLVLTEVLFNEK [EIF5],4.01 ± 0.2,4.17 ± 0.24
AEGSPGGPGDSQGRKRRQTSMTDF [CDKN1A],5.23 ± 0.1,5.13 ± 0.22
AEKWQKEKDRIKSFTTNEKAILEQ [TRIM29],4.76 ± 0.21,4.8 ± 0.22
AEMLGSVVGNWQYFFPVIFSKASS [MAGEA3],2.17 ± 0.31,2.21 ± 0.35
AEPLKEDKPVTGPRNKTENGLTPK [ATF6],5.5 ± 0.26,5.35 ± 0.18
AESQGCNHEEDAGVRCNTPAMGLQ [LOXL2],5.34 ± 0.27,5.29 ± 0.3
AEVAPEERENVAVAKLQESQPGNA [SDE2],5.49 ± 0.18,5.718 ± 0.056

Sequence,protein stability index (treatment: DMSO),"protein stability index (treatment: MLN4924 1 uM, 8 h)"
AFPSGHLLDAHILEWHDSLFQILS [ZNF511],2.35 ± 0.33,2.29 ± 0.3
AFQAFTNDLLEILEIDDLDAIVPA [CEP70],2.73 ± 0.22,2.73 ± 0.5
AFVRMKQLIEEGYVGEPLVCEVQV [GFOD1],2.47 ± 0.77,2.55 ± 0.71
AGELRKPTQEEWRQVVDILWSDPM [PPEF2],3 ± 0.53,2.97 ± 0.082
AGGAGRGEDEENREHRVRRIHVRR [KCTD13],5.19 ± 0.16,5.34 ± 0.28
AIEIFRYSFYMLTCIDMDWKVLTW [HACD3],3.23 ± 0.4,2.57 ± 0.53
AILQNHTDFKDKIVLDVGCGSGIL [CARM1],2.31 ± 0.21,2.34 ± 0.25
AISITAIAKYSDGASKAAGVFGFF [CMTM3],2.96 ± 0.88,2.78 ± 0.4
AKGHVKLSDFGLCTGLKKAHRTEF [STK38L],2.75 ± 0.21,2.61 ± 0.15
AKNAAKDMNGKSLHGKAIKVEQAK [RBMY1A1],4.64 ± 0.23,5.01 ± 0.53
AKNQSDEAKEAKGSGYEKLGPSRD [RTP4],5.47 ± 0.16,5.34 ± 0.26
AKQLFRKLNEQSPTRCTLEAGAMT [SEC22B],2.45 ± 0.21,2.6 ± 0.17
ALENLQVEASCSVCLEYLKEPVII [TRIM39],2.77 ± 1,2.95 ± 0.58
ALGCVMYTMLLGRPPFETTNLKET [PLK2],2.72 ± 0.74,2.79 ± 1.1
ALLKFHTLDSYEDKQKLKRTEIIS [YJU2B],2.53 ± 0.3,2.53 ± 0.3
ALMRMLDNLGYRTGYPYRYPALRE [ADD1],2.79 ± 0.4,2.65 ± 0.59
ALQAPHSPSKTDGKELAGTMDGEG [PBXIP1],5.25 ± 0.25,5.34 ± 0.084
ALSGVGGIRLPNGKLKCDICGIIC [IKZF1],1.96 ± 0.26,2.1 ± 0.34
ALSPSATAKRINRTSLSSGATVRS [CDC14A],4.1 ± 0.11,4.16 ± 0.11
ALVVALWGPLQDSLEHTLRVAIAH [TSPAN10],2.89 ± 0.12,3.05 ± 0.15
AMAERNRRDAEEWFHAKSAELNKE [KRT13],5.03 ± 0.27,5.01 ± 0.29
AMGHSQDRLTTFQENQARTHVLSK [LRRC45],4.7 ± 0.21,4.7 ± 0.28

Sequence,protein stability index (treatment: DMSO),"protein stability index (treatment: MLN4924 1 uM, 8 h)"
AMREAIQSYPSQDKPLPPPPPGSL [SOAT2],4.23 ± 0.12,4.04 ± 0.35
APDEKRSNVRWDHESVCKYYLCGF [LUC7L3],2.34 ± 0.28,2.41 ± 0.24
APGPSPADKKRSGKKKISKADIGA [WAS],5.02 ± 0.23,4.86 ± 0.17
APGRPGHPSGHWATCRLCGEQVGR [ZBED3],2.331 ± 0.015,2.81 ± 0.41
APRFNQQLYTAYILENRPPGSLLC [PCDHGC5],2.1 ± 0.2,2.07 ± 0.28
AQAAAAESDSRKVAEETPDGAPAL [PRKX],5.38 ± 0.092,5.55 ± 0.12
AQALRQELERQRRLLGSVQQDLER [PBXIP1],4.08 ± 0.091,4.23 ± 0.12
AQEDSLNKLALQYGCKVADIKKVN [LYSMD4],3.41 ± 0.14,3.71 ± 0.15
AQGPNKPGYLVGRNNANGVDLNRN [CPN1],4.33 ± 0.11,4.35 ± 0.16
ARAEAEQMAKKAEAFQLYQEAAQL [FLOT1],4.49 ± 0.17,4.52 ± 0.3
AREHFGTVKTHLTSLKTKFPAEQY [TSN],3.02 ± 0.085,3.08 ± 0.48
ARIRDEEAQRASFLQNAVLAYVQA [LRRC45],2.46 ± 0.2,2.49 ± 0.29
ASSRASENQSPSSSNYFSPRESTD [ZBTB22],5.3 ± 0.29,5.167 ± 0.043
ASTKMCEQALGKGCGADSKKKRPP [PLK2],4.58 ± 0.11,4.76 ± 0.24
ASWYSLSKGMQDFNYLHTNCFEIT [CPN1],2.56 ± 0.58,2.23 ± 0.4
AVCKATTHEVMGPKKKHLDYLIQA [SNAP91],3.06 ± 0.29,2.96 ± 0.14
AVFIALLPILGHRDYKIQASRTWC [PTGFR],2.95 ± 0.64,2.81 ± 1.1
AWEDSHGSQDGHFVLSCSYDGLDC [SCNN1D],3.73 ± 0.17,3.59 ± 0.19
AWHCSESGQRLGGYRTSAVASGLQ [WDFY2],2.84 ± 0.14,3.1 ± 0.16
AWKELDRNYLNYGEEGAPGKWQQQ [CHGB],3.47 ± 0.43,3.75 ± 0.67
AYDFHGSWEKVTGHNSPLYKRQEE [CHIT1],4.33 ± 0.37,4.14 ± 0.45
